From PMC10397247
Blank lines part the entries; values can stand above or below the binder they belong to.

How the values were obtained:
[1] = target: T1, P6A-bP; assay: two-hybrid library CCNG1;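 further: natural log of median RNA to DNA barcode read ratio; higher means stronger binding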
T1 chain: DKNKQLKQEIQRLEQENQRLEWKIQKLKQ

[2] = target: T2, P7A-bP; assay: two-hybrid library CCNG1;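 further: natural log of median RNA to DNA barcode read ratio; higher means stronger binding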
T2 chain: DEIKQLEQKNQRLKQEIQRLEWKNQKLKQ

[3] = target: T3, P8A-bP; assay: two-hybrid library CCNG1;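 further: natural log of median RNA to DNA barcode read ratio; higher means stronger binding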
T3 chain: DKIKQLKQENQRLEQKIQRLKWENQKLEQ

[4] = target: T4, P9A-bP; assay: two-hybrid library CCNG1;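 further: natural log of median RNA to DNA barcode read ratio; higher means stronger binding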
T4 chain: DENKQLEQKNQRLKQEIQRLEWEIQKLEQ

[5] = target: T5, 4H2585-bH; assay: two-hybrid library CCNG1
T5 chain: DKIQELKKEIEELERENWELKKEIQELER

[6] = target: T6, 4H2588-bH; assay: two-hybrid library CCNG1
T6 chain: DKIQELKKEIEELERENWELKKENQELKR

[7] = target: T7, 4H2692-bH; assay: two-hybrid library CCNG1
T7 chain: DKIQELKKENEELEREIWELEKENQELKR

[8] = target: T8, 4H2717-bH; assay: two-hybrid library CCNG1
T8 chain: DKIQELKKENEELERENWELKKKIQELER

[9] = target: T9, 4H2839-bH; assay: two-hybrid library CCNG1
T9 chain: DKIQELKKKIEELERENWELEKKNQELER

[10] = target: T10, 4H2915-bH; assay: two-hybrid library CCNG1
T10 chain: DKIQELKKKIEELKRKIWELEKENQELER

[11] = target: T11, 4H3057-bH; assay: two-hybrid library CCNG1
T11 chain: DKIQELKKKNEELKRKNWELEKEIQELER

[12] = target: T12, 4H319-bH; assay: two-hybrid library CCNG1
T12 chain: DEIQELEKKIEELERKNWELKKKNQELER

[13] = target: T13, 4H3277-bH; assay: two-hybrid library CCNG1
T13 chain: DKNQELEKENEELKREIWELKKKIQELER

[14] = target: T14, 4H348-bH; assay: two-hybrid library CCNG1
T14 chain: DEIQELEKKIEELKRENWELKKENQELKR

[15] = target: T15, 4H40-bH; assay: two-hybrid library CCNG1
T15 chain: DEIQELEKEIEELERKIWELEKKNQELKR

[16] = target: T16, 4H477-bH; assay: two-hybrid library CCNG1
T16 chain: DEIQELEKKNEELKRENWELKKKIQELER

[17] = target: T17, 4H492-bH; assay: two-hybrid library CCNG1
T17 chain: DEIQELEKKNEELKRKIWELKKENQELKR

[18] = target: T18, 4H741-bH; assay: two-hybrid library CCNG1
T18 chain: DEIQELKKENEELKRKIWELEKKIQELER

[19] = target: T19, 4H1809-AA; assay: two-hybrid library CCmax; settings: mean of both orientations
T19 chain: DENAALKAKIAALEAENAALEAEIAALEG

[20] = target: T20, 4H1854-AA; assay: two-hybrid library CCmax; settings: mean of both orientations
T20 chain: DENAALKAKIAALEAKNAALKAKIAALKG

[21] = target: T21, 4H189-AA; assay: two-hybrid library CCmax; settings: mean of both orientations
T21 chain: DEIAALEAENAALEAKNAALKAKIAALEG

[22] = target: T22, 4H2248-AA; assay: two-hybrid library CCmax; settings: mean of both orientations
T22 chain: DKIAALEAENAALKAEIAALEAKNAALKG

[23] = target: T23, 4H2283-AA; assay: two-hybrid library CCmax; settings: mean of both orientations
T23 chain: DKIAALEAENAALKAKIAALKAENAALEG

[24] = target: T24, 4H2713-AA; assay: two-hybrid library CCmax; settings: mean of both orientations
T24 chain: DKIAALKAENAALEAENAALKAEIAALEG

[25] = target: T25, 4H2742-AA; assay: two-hybrid library CCmax; settings: mean of both orientations
T25 chain: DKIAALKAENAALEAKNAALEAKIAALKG

[26] = target: T26, 4H2948-AA; assay: two-hybrid library CCmax; settings: mean of both orientations
T26 chain: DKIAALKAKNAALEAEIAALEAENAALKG

[27] = target: T27, 4H2991-AA; assay: two-hybrid library CCmax; settings: mean of both orientations
T27 chain: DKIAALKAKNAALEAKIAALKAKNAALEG

[28] = target: T28, 4H3029-AA; assay: two-hybrid library CCmax; settings: mean of both orientations
T28 chain: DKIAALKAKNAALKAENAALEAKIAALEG

[29] = target: T29, 4H3066-AA; assay: two-hybrid library CCmax; settings: mean of both orientations
T29 chain: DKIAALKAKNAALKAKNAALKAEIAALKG

[30] = target: T30, 4H3102-AA; assay: two-hybrid library CCmax; settings: mean of both orientations
T30 chain: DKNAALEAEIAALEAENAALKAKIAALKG

[31] = target: T31, 4H3121-AA; assay: two-hybrid library CCmax; settings: mean of both orientations
T31 chain: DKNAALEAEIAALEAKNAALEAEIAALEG

[32] = target: T32, 4H3417-AA; assay: two-hybrid library CCmax; settings: mean of both orientations
T32 chain: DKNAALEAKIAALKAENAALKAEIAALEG

[33] = target: T33, 4H3446-AA; assay: two-hybrid library CCmax; settings: mean of both orientations
T33 chain: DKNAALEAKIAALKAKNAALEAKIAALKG

[34] = target: T34, 4H3591-AA; assay: two-hybrid library CCmax; settings: mean of both orientations
T34 chain: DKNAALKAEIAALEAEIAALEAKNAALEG

[35] = target: T35, 4H3628-AA; assay: two-hybrid library CCmax; settings: mean of both orientations
T35 chain: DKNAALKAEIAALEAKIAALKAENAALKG

[36] = target: T36, 4H3666-AA; assay: two-hybrid library CCmax; settings: mean of both orientations
T36 chain: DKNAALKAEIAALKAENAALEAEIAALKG

[37] = target: T37, 4H3709-AA; assay: two-hybrid library CCmax; settings: mean of both orientations
T37 chain: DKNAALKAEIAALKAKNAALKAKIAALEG

[38] = target: T38, 4H391-AA; assay: two-hybrid library CCmax; settings: mean of both orientations
T38 chain: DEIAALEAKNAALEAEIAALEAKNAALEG

[39] = target: T39, 4H3920-AA; assay: two-hybrid library CCmax; settings: mean of both orientations
T39 chain: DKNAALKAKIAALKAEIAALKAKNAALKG

[40] = target: T40, 4H3939-AA; assay: two-hybrid library CCmax; settings: mean of both orientations
T40 chain: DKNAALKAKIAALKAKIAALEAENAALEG

[41] = target: T41, 4H428-AA; assay: two-hybrid library CCmax; settings: mean of both orientations
T41 chain: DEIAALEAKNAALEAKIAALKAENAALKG

[42] = target: T42, 4H478-AA; assay: two-hybrid library CCmax; settings: mean of both orientations
T42 chain: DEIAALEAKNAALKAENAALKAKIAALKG

[43] = target: T43, 4H497-AA; assay: two-hybrid library CCmax; settings: mean of both orientations
T43 chain: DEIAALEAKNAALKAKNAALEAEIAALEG

[44] = target: T44, 4H656-AA; assay: two-hybrid library CCmax; settings: mean of both orientations
T44 chain: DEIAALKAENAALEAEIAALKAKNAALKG

[45] = target: T45, 4H675-AA; assay: two-hybrid library CCmax; settings: mean of both orientations
T45 chain: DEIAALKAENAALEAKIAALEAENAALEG

[46] = target: T46, 4H971-AA; assay: two-hybrid library CCmax
T46 chain: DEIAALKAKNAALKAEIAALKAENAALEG

interaction score [1]: -0.494 | interaction score [2]: 0.418 | interaction score [3]: -0.264 | interaction score [4]: -0.616
Binder: DKNKQLKQEIQRLEQENQRLEWKIQKLKQ [P6A-bP]

interaction score [5]: -1.1 | interaction score [6]: -0.858 | interaction score [7]: 0.839 | interaction score [8]: -0.106 | interaction score [9]: 0.527 | interaction score [10]: 0.0935 | interaction score [11]: 0.435 | interaction score [12]: -0.903 | interaction score [13]: -0.644 | interaction score [14]: -0.941 | interaction score [15]: -2.05 | interaction score [16]: -0.993 | interaction score [17]: -0.241 | interaction score [18]: 0.303
Binder: DKIQELEKKNEELKREIWELEKKNQELER [4H2503-bH]

interaction score [19]: -1.69 | interaction score [20]: 1.2 | interaction score [21]: -0.199 | interaction score [22]: -1.75 | interaction score [23]: -1.02 | interaction score [24]: 0.457 | interaction score [25]: 0.586 | interaction score [26]: -1.48 | interaction score [27]: -0.675 | interaction score [28]: 2.06 | interaction score [29]: 1.92 | interaction score [30]: -1.45 | interaction score [31]: -1.69 | interaction score [32]: -0.477 | interaction score [33]: -0.572 | interaction score [34]: -1.28 | interaction score [35]: -1.8 | interaction score [36]: -0.984 | interaction score [37]: -0.0632 | interaction score [38]: -1.68 | interaction score [39]: 0.785 | interaction score [40]: -1.52 | interaction score [41]: -1.8 | interaction score [42]: 1.98 | interaction score [43]: 0.786 | interaction score [44]: -1.76 | interaction score [45]: -2.03 | interaction score [46]: 0.134
Binder: DEIAALEAENAALEAENAALEAEIAALKG [4H146-AA]
